# PMC9054839, “Mechanism of integrin activation by talin and its cooperation with kindlin” (Nature Communications, 2022)
# No end group written: not given here.
# B1: talin-F3 (domain or fragment)
# chain: GVSFFLVKEKMKGKNKLVPRLLGITKECVMRVDEKTKEVIQEWSLTNIKRWAASPKSFTLDFGDYQDGYYSVQTTEGEQIAQLIAGYIDIILKKKKS
# B2: talin-R8 (domain or fragment, mouse, UniProt P26039 1461-1580, looked up)
# chain: LVEPTQFARANQAIQMACQSLGEPGCTQAQVLSAATIVAKHTSALCNSCRLASARTANPTAKRQFVQSAKEVANSTANLVKTIKALDGDFTEENRAQCRAATAPLLEAVDNLSAFASNPE
# notes: talin (talin-1), mouse, rod subdomain R8; source: E. coli BL21 (DE3), purified
# B3: GST-integrin beta3 cytoplasmic tail (domain or fragment, UniProt P05106 742-788, looked up)
# chain: {GST}-KLLITIHDRKEFAKFEEERARAKWDTANNPLYKEATSTFTNITYRGT
# notes: integrin β3 cytoplasmic tail; also called integrin-β3 CT; GST-integrin beta3CT; source: E. coli BL21 (DE3), purified
# B4: GST-paxillin 1–160 (domain or fragment)
# chain: not shown
# notes: paxillin-γ, human, N-terminal 1-160 containing LD1 and LD2, in pGST-1; also called paxi1–160; source: E. coli BL21 (DE3), purified (GST column, gel filtration)
# B5: talin-R2 (domain or fragment, mouse, UniProt P26039 655-782, looked up)
# chain: IGESDTDPHFQDVLMQLAKAVASAAAALVLKAKSVAQRTEDSGLQTQVIAAATQCALSTSQLVACTKVVAPTISSPVCQEQLVEAGRLVAKAVEGCVSASQAATEDGQLLRGVGAAATAVTQALNELL
# notes: talin (talin-1), mouse, rod subdomain R2; source: E. coli BL21 (DE3), purified
# B6: full-length paxillin (natural protein)
# chain: not shown
# notes: also called paxiFL; paxillin-γ; source: E. coli BL21 (DE3), purified (GST column, gel filtration)
# Legend:
# Details in all cases: both partners purified
# paxillin 1–160 = target: T1, paxillin 1–160 (human, UniProt P49023-3 1-160); assay: SPR; paxillin 1–160 amine-coupled to CM5, talin subdomains (0–12 μM) flowed over; 50 mM sodium phosphate pH 6.8, 150 mM NaCl, 25 °C; talin-R1–R4 fitted by a two-state model
# T1 construct: paxillin-γ, human, N-terminal 1-160 containing LD1 and LD2, in pGST-1; also called paxillin-γ 1–160; paxillin N-terminal 1–160; source: E. coli BL21 (DE3), purified (GST column, gel filtration)
# T1 sequence (P49023 1-160): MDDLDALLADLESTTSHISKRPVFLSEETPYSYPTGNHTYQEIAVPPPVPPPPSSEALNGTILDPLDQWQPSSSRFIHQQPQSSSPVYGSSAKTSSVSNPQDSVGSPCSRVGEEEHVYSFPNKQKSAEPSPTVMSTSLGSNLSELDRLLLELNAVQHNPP
# [1] = target: T2, constitutively activated full-length talin mutant tlnM3 (M319A, T1767L, E1770K) (mouse, UniProt P26039 1-2541, M319A | T1767L | E1770K); assay: SPR; GST-integrin beta3CT amine-coupled to CM5, talinH or tlnM3 (0–125 nM) flowed over; 50 mM sodium phosphate pH 6.8, 150 mM NaCl, 0.05% Tween 20, 0.03% BSA, 25 °C
# T2 construct: talin (talin-1), mouse, full length 1-2541, in pET28T; also called active talin; talinFL TM; source: E. coli BL21 (DE3), purified (nickel column, Superose-6 gel filtration)
# T2 sequence (P26039 whole entry M319A/T1767L/E1770K): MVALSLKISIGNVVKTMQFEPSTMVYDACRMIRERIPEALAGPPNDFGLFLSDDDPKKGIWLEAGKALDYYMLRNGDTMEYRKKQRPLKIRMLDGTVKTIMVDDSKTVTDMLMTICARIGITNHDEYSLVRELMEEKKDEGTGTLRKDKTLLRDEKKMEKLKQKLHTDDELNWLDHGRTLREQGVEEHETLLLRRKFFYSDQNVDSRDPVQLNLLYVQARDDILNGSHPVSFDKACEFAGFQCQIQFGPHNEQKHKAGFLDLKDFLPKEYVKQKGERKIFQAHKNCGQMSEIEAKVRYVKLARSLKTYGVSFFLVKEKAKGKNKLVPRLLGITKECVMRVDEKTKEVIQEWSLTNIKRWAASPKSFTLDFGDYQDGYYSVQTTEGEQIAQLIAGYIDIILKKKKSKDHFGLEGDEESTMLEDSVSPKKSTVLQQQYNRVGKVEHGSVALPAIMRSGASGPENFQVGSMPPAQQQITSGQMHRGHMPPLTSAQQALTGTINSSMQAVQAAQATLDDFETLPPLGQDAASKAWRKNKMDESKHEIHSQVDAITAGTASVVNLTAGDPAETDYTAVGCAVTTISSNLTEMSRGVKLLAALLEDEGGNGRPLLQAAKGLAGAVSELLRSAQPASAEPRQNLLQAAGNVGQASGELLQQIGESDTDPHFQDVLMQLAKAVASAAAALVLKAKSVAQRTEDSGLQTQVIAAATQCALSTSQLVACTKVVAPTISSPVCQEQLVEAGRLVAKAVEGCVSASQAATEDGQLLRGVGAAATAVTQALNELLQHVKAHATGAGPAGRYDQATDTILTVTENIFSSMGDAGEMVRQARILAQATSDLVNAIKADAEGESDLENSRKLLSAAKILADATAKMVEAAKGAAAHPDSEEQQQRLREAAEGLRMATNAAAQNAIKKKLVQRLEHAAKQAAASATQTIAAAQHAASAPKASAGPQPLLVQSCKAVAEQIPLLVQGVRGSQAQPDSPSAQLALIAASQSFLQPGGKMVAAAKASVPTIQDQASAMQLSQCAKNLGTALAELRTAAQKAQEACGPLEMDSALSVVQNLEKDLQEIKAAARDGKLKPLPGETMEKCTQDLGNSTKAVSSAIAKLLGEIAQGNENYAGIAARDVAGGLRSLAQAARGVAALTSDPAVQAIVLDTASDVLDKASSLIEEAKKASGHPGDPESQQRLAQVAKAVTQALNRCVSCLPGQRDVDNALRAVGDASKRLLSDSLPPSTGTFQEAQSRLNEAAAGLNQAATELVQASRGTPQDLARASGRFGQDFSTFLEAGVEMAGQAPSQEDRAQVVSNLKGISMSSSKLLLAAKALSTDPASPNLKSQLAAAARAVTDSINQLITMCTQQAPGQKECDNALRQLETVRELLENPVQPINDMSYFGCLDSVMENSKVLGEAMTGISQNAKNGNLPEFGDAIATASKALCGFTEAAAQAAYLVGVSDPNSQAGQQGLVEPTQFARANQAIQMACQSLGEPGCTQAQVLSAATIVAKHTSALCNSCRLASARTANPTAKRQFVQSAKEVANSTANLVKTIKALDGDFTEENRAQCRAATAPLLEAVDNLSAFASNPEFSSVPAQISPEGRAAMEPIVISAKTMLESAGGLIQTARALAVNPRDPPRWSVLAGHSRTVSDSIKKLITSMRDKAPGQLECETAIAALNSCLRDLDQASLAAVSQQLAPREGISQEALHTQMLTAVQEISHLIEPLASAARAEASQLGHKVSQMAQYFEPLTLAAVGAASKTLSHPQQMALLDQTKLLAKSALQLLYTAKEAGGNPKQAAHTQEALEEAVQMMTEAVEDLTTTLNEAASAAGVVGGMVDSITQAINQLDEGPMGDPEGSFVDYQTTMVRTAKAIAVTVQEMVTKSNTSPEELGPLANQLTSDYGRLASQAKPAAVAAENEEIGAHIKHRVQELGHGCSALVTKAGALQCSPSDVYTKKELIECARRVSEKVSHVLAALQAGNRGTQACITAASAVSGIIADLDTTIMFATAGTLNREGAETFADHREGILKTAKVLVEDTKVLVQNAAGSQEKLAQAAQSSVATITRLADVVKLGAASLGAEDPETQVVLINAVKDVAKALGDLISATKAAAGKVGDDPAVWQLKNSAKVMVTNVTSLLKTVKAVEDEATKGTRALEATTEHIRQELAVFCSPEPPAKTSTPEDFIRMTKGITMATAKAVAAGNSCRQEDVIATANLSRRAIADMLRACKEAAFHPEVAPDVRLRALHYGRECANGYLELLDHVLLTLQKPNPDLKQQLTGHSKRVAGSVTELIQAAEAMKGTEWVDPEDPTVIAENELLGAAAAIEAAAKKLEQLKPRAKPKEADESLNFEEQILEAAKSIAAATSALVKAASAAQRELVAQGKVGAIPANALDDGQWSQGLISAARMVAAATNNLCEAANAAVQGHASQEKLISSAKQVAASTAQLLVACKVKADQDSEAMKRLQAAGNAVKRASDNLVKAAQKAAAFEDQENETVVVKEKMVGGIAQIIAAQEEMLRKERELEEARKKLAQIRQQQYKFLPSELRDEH
# [2] = target: T2, constitutively activated full-length …; assay: pull-down; GST-paxillin (full length or fragments) on glutathione-Sepharose 4B beads, talin or talin fragments as prey; 25 mM Tris-HCl pH 7.5, 150 mM NaCl, 0.5 mM TCEP, 0.01 or 0.1% NP40, 4 °C; western blot or Coomassie
# [3] = target: T2, constitutively activated full-length …; assay: SPR; tlnM3 amine-coupled to CM5, paxiFL (0–500 nM) flowed over; 50 mM sodium phosphate pH 6.8, 150 mM NaCl, 25 °C; 1:1 model
binder,measurement,setting,value
B1,Kd,paxillin 1–160,~3.51 µM
B2,Kd,paxillin 1–160,~5.37 µM
B3,Kd,[1],~0.0145 µM
B4,binding result,[2],binds
B5,Kd,paxillin 1–160,~2.21 µM
B6,Kd,[3],~0.0331 µM
same,stoichiometry N,[3],1
